Laboratory results reported in the domain aggregation screens of Martell et al. (2025).

assay: soluble fraction after stress (log2 fold change); higher = more stays soluble; pooled small domains, quantitative proteomics; conditions: stress: pH 4
How it was run: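 Pooled custom libraries of small protein domains were stressed at pH 4 and then measured by high-throughput quantitative proteomics. The fold change in the amount of each domain that stays soluble after the acid stress serves as a measure of aggregation propensity. Fold changes are given on a log2 scale, and higher values mean more of the domain stayed soluble.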

Sequence | soluble fraction (log2)
HMVVMEIGANGSEVVKLQKRLNQLGYYTEHASGVYDVKTASAVNEFQRQNELNATGKADYTTLDMIYNQ | -0.204
HMNANTILNSQRILTQLGFNPGPIDGAFGAKTKGALNAFYTSIGKSYDGLLDSNELVELQKALDVSGLKN | -0.198
HMPLDKDTTLDEIYRRFNMEHPADYKGHSLSMGDIVVFRQDGKQTAYYVDEGADYRQVPEFFVK | -0.173
HMNKEDIASNEKLLGLLNHMSKVLKDIDFIKDDRPMIVRKINHIFKKATLSEEEINILRGVLSAIENHS | -0.104
HMERLSNQVYAILKEMIADYRFNPGARINVEQIAKEVGASRTPVWEAVHRLVQEGLLENIPNRGVFML | -1.11
HMAKNYYEILGLKSDATLPEIKKAFKKLSKKFHPDKNRDDDGYFESMFKSINEAYQVLIDEDKRATFDSHH | 0.166
HMAKVSVNIILKDGVDQTTFVNDVTSNTEVDLKNQLISLPQMVVLSVEEDYINTLKSHSSISILELDE | -0.541
HMEEIPYGVISAKAGAAAYDYIKKSIELGIEKKIDGVATAPIQKEAIHMAGISYIGHTEMYQGIT | 0.0683
HMQNYLEVLRLHELGMGQRKIAQQVHTSRDTIRKIIAIAENQGLNYSNLIGKTDNELSKVFG | 0.0958
HMGVGIEALAVEVDRIRQVLTGGGALSDIQLFSQLKALGEVKTALSSMTDPRARELEKRVAQLLEASLRT | -0.323
HMGSSLLSPKEREVLQLLAGNLSNKQIALAMGVSDETIKWHLRNLFGKLNAGGRKHLIDRARMLGLLAAA | -0.153
HMNSNTIIINDIMTKIGKEVKNFTEIYSIILKALAEHGEEYVRTNTEYALKNFTGNFDIFLEQLLLK | -0.219
HMTLHDLFPQAVEFVSEKEMISTAELQRKLMISYNSAAKIIDQLLHVDFIQKSESAGKYSVLIK | -0.486
HMLKNKSTGNINETKAILELALNHSHFKVFDNRDMTVTFKNLATQFTTMQRILVQMFFPLPAGVELIIE | 0.268
HMEMPGGVMRTLSTIAYNQPVLQSKLVKVRGPRAYEDVHILRDMGLVSARSVGQTVELSTTPKFAEQF | 0.102
HMDSATDRVALKELLNTLSARERTIITLRYFSDQTQTQVAKSLGISQVQVSRLENAILQRLRKL | -0.271
HMPDVAIMNVSVEPEKKVVRLQVKAISLEALLDFSTRLEAIPARVELQNHTPSKELSQKWAVNATLIVIY | -0.0366
HMLTNNYKNDKALRFAKNHGIHESNILKLVSLYENAPEKGFNAQSIAELLGITPRSASRILVKLLQHNLIR | 0.381
HMLSVLKNVDVNSLSDDKIKTYWQQIQKSGYTLDEVEVLAEAQGISPLKIAAFKRRVQSLQQSLQT | -0.018
HMGTELSYSEFLNKVEAGEVTNVTIRGPEITFQTGNSSYTTYAPDDPKLIEHLTAKGVAIKAGP | -0.311
HMAQLKYEQIKSYLQAEAVKPESATRMPTVRELMRRFNVSLVTVNRALSELEHAKVIVRRQGAGIVAAQ | 0.0424
HMKEEVSVPDIKGMTYEEAEAKLAKYDLEIEKGETVKASEQYEEGQISSQEPEAGSKVKEGSTIVVDVVE | -0.174
HMIVLPGEELEVHIVQEGKEDGQGVAYLDDGTMVVVEGGRPYVDSFAYVAVTRVLQTGAGRIIFAHPTR | -0.108
HMAAVSTDEEFAALGIPAEWIPVLKSNGFQTVESLKKVAPGALFNQLGGLRKKNKLEIAMPSLDQVKAWLA | -0.278
HMYTEIDDVKDLLSKIPSVNKLTTADRGMVQAARNAYDALDEDQKLYITIADVEKFNAAVEWMEEH | -0.523

Sequence | soluble fraction (log2)
HMFEARNTTFSEDGKTITETYGVKRIETEFVSDSTIVQKLYDNDVLTKTKTITFSADGLSIKEDV | -1.33
HMDRWTPLVVAVLSRGSHRFGELRAAIGGITPKVLTDTLRSMERDGLITRDQAPGVPPRVDYALTPLGS | -0.126
HMGYTLDVAHGVTEDMNFSEAFATAREEVGPGGIFYWHGKPYGTYYENEWNAMDEEDKAEYWDAVGRTTA | -0.508
HMQVSDANQLTDVVKSIIKQYPVEVEKYKSGKKALFGFFMGKVMENLKGKSNPKILKNVLTEILD | 0.263
HMAEPTLNERLREALSDPAKLKIAKAIKAKYPIITARDIDTFLNMHEKDIENGADPMDEFEEFFHANY | -0.132
HMTGIKISVDRLQIGNYVKLPLNWKDHPFLFSSFAIKSQEEIDLIRRLGLKQVIMFPDKSSMPPKPV | -0.0359
HMSDYLGSLSHEEKMIFNHFDEDSSTIENMAKKTELKPELISQIFLNLELRGFLRQTEGGLYEKI | -1.13
HMSTMTEQEAFGLWERINDFIARTGNEPNRNSNDAHEVRMAEALNFIRIKVAEQRNSQSNSEAQNN | -1.39
HMASVVEQVQVSNDISLFRQQNSPYWQARFKVAGKWYTRTTKRTEQTQAAFRAAELRSEVQTKISQGIPLR | -0.00738
HMDATIGGFKITDSAIYSGVKNNVNAGVRGTYIDKDGQIAFGDSNSYLKYYKDTDGKWKLEVSASSVKF | -0.476
HMSRAHTELEEKLLTMLEENDMTLPMRVISNIASRIEGIIIPEEKILEVLKKSYDRYREHQMD | -0.784
HMSEPIYTQLKEILTQKIVNGEFPPGARLPSEYELTELYHISRSTVRLALKELEASGMIVRRRGKGTFVSS | -0.0496
HMLISYRVDALANEAGLSVDTIRYYQKLGILDPPKRTGRHSEYSPDHLERLIEIRRLADAGLTLSQISEI | -2.33
HMSPFYILDEVEAALDDTNLGRLLEIYEELRENSQLLVITHQKRTMEVGDALYGVTMRGDGVSAVISQRLR | -1.74
HMFTLNEIIGQKIRNARISAGLTLDELSKMTGISAAQLSSLETGYRRANIDTLYAIAKAIGIDVSNLLKY | -0.626
HMYGTERILAQLANYGIPNKLAFQIQDFYKEETLQIVEQQPYRLVEDIQGMGFKIADQLAEELGI | -1.35
HMGPLSDRSVADWLLRLGLADTANNRLLLQVMHAAGLPLERTAVRAMRETAAGRPEGTDAREWLQAAAAAQ | -0.326
HMTMNYYDILSIKRDATLEEIQKAYKEKSFQFHPDFNKGISDDSMFRIIKEAYETLSDTEKRNQYDASLNK | -0.134
HMNMVSGHLQIKKGYYYVVLSYYDNRNKRHVKYVSTGLPEKGNKRKAEAALARVRSEFEPPQE | 0.353
HMSKYGIAYSEVLEILKHIPIEDYNKIPRNEIELFETYADKDFTFNYDSSKTLEEQNVSNITKGIIIL | -0.465
HMKDITPASEDQLKAITDLMLKVNGEWSDAFFTFISKKFNHQISSPEQLTTFEANTIIDMLRKKAEG | 0.22
HMSPKYLELVRWINTQIQEKKLTAGQKMYSENELKEMFGVSRQTVRHAISVLEGEGMIRRVRGSGTYINDN | -0.043
HMSGEVLTAVVPETASGERLDKVLPQIFPPYSRSQLQTWLKEGRVTLDREIPAARLAVIGGETLRLEVPSL | -0.0494
HMLHVRSALMSELDGIEGIGEKRKRLLFDAFITRDAIAAATLEQLMAVKGMNRPSAEAVHKHFHG | 0.203
HMPQNVSVPDVTNMTQAEAESKLKEKNLAVGNIIPELSTTVEKDKVTRTNPESGSNVRKNSKVDIYVSQG | 0.327

Sequence | soluble fraction (log2)
HMTRVDALDQLAAIRFSSHIFAEDQDLRMVVVDGQRIGEGDIVRDEIRLEQITETGVIFEYQGERFPIDV | -2.21
HMTIPRLPFAFAKRFGIVLDNRPSGFVAAHKEGLLPHVLLEVQRFLGDAYTLEVVSDDDFERILGQVYQT | -2.03
HMPDLSAEERNIVEALQKSNDLQVNLIAVKTGMDMGTLSATLFGLEMKGLVKLMAGGTYHLI | 0.191
HMDIVLPFSFAKRHGVVLSERQGETELLYLKGLPVRVLAEARRVLRQEFTVRQVEQAVFDKALSESYQN | -0.591
HMKVELSENEKIIYDLLSNQEVLLSEIKDKAELSNKAWDKSTKSLRKLGLVIVEKKDDNIYISKS | 0.368
HMSVPRPSAVEVTSLVTGVRDLLPHLGEGYVERVLVEFGFKVDETINALLEGNLPKHLQDLDPSLTKEI | -1.25
HMYSRQRDLILKALRENVVHPTADFIYTVLKEKEPNLSLATVYRNLNLLANEGIIRKIEGLDGVAHFDH | 0.059
HMAQPIPSGSDIREAREAAGMNLRDFARMVGGGAIGTWSHYETGKPIRVKSISPEVWQRVRDFILQHGK | 0.036
HMAQLSDMLTYLRKRKGLSQQELANTLKISRSAIGMYETGKREPDLETLEVFADFYNVDMNTLTGKA | 0.192
HMSLGSNISRLRAEKHLSQGDLAEALDVSRQSVSKWETDGSVPDLDKLVKLSRIFGVTLDELVTGTP | 0.0988
HMGFLTKTQRLEILLHLKDEPYYNVEKLKELIKNRYGIVYQSSQSYYDLLKEAGLSWHQTQA | 0.00834
HMKMQPVISQGVLYINNVTDVRTIEVFDISGRIVADAAASTTVNIAHLNEGPYIVKVTTVNGIESIKILNK | -0.889
HMGMNKEHFIIELKIYLKALNPKDQAIILAKYKALFDARVAEGETEEQVAKSLGKPRVIAEEILKEQGIE | ≥ 0.43
HMAQRFDLGDKLNPQSSEFEYLGTSSRTGVSTYRYKNVPTQLFFGRQIGDIVVGVRRGMITLTIYNL | 0.146
HMQNLSELAYVNLRDALMQGQMKPGEELPLRPISRSFGISATPMREALLRLVTESALEMDSRGRISVP | -0.183
HMRSIVETLTDRELEIFQLIGNGFSTGEIARRLNLSPHTIETHRKNIKDKLGLSSGSELNKQAIQWVLSS | -1.15
HMIELEGVISSVLAGTMFKVKLRGNGHEVLAHISGKMRKKFIRLVIGDAVKIEMSPYDMDKARIVYRI | 0.269
HMGDPSSERNIQKSIFILIGEKALSVQDISRSLGMPNDIIDKALISGVERNLWLSSDKGEYYL | -1.04
HMKKTPLSELTNRAVELFIETVFMERNYSVSSQRQFISALKIFTVFYPQTKIHNLSLERLQSSFDKLLN | -0.564
HMKQISNTDELEAMIQKIIEDNSQQVEKFRSGNEKLFGWFVGQVMKNTQGAANPKVVNEILKKSLK | 0.181
HMPRENLAYTLIMDGIVQHKNLPRASVTEAWLKQELQKAGINDFRQVLIAGIDSKGQLYFQPKQK | -0.392
HMAFRLPNGYGTIRRLTGNRRKPYVALVNPTQVFDDEKGTSHYKYDLLGTFAEKIDAYNAVMQYHKSPGGL | -0.223
HMEKIIFEISEEGKRLDLYIAERTELTRTRIQQLIKDGNINVNNKKSKPSYKVEKNDFIEMIIPDE | -0.49
HMGIILDWELFEQFADKLKRKKVDFVIEPYLRFEGRRGEQSTLFIKDPSGNYLEFKAFKNIDMLFEK | -1.38
HMFAGEWKQDASGWWYQNDDGSFTRNGWQNISGKQYYFNENGYMLHDTTTPDGKQVGSDGSLV | -0.389
